We go through one molecule from paper PMC12135382 (The Journal of Biological Chemistry, 2025).

The target in the experiment is T1, GR W712A-LgBiT (human, UniProt P04150 1-777, W712A).
T1 sequence: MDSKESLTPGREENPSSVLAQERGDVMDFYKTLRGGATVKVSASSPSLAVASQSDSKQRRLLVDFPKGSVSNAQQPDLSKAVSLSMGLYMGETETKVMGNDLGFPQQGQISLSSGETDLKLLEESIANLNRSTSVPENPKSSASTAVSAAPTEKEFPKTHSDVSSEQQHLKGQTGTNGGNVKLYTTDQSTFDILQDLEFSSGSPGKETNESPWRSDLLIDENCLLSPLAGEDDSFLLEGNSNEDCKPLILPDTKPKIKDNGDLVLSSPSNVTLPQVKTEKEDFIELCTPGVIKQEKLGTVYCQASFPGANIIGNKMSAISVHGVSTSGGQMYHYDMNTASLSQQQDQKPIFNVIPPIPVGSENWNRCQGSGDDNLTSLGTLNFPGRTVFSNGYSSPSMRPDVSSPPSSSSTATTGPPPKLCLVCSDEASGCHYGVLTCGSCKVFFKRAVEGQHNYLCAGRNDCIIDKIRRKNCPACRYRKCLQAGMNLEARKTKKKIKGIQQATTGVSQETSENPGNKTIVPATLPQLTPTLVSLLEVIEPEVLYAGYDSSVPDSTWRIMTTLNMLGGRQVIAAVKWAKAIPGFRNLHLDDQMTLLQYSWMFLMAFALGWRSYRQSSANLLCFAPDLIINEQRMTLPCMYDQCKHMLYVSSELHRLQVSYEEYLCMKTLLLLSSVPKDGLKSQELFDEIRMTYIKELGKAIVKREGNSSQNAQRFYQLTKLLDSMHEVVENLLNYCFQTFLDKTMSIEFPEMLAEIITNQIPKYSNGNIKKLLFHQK
Description: split reporter.

B1: MR-SmBiT (mineralocorticoid receptor with C-terminal NanoBit small tag) (receptor)
chain: METKGYHSLPEGLDMERRWGQVSQAVERSSLGPTERTDENNYMEIVNVSCVSGAIPNNSTQGSSKEKQELLPCLQQDNNRPGILTSDIKTELESKELSATVAESMGLYMDSVRDADYSYEQQNQQGSMSPAKIYQNVEQLVKFYKGNGHRPSTLSCVNTPLRSFMSDSGSSVNGGVMRAVVKSPIMCHEKSPSVCSPLNMTSSVCSPAGINSVSSTTASFGSFPVHSPITQGTPLTCSPNVENRGSRSHSPAHASNVGSPLSSPLSSMKSSISSPPSHCSVKSPVSSPNNVTLRSSVSSPANINNSRCSVSSPSNTNNRSTLSSPAASTVGSICSPVNNAFSYTASGTSAGSSTLRDVVPSPDTQEKGAQEVPFPKTEEVESAISNGVTGQLNIVQYIKPEPDGAFSSSCLGGNSKINSDSSFSVPIKQESTKHSCSGTSFKGNPTVNPFPFMDGSYFSFMDDKDYYSLSGILGPPVPGFDGNCEGSGFPVGIKQEPDDGSYYPEASIPSSAIVGVNSGGQSFHYRIGAQGTISLSRSARDQSFQHLSSFPPVNTLVESWKSHGDLSSRRSDGYPVLEYIPENVSSSTLRSVSTGSSRPSKICLVCGDEASGCHYGVVTCGSCKVFFKRAVEGQHNYLCAGRNDCIIDKIRRKNCPACRLQKCLQAGMNLGARKSKKLGKLKGIHEEQPQQQQPPPPPPPPQSPEEGTTYIAPAKEPSVNTALVPQLSTISRALTPSPVMVLENIEPEIVYAGYDSSKPDTAENLLSTLNRLAGKQMIQVVKWAKVLPGFKNLPLEDQITLIQYSWMCLSSFALSWRSYKHTNSQFLYFAPDLVFNEEKMHQSAMYELCQGMHQISLQFVRLQLTFEEYTIMKVLLLLSTIPKDGLKSQAAFEEMRTNYIKELRKMVTKCPNNSGQSWQRFYQLTKLLDSMHDLVSDLLEFCFYTFRESHALKVEFPAMLVEIISDQLPKVESGNAKPLYFHRK
For the molecule B1, the “reconstituted luciferase activity relative to WT receptors” value stood at 32%.
